This note sets out measurements from PMC5477506.

By stoichiometry N is commonly meant the number of molecules, sites or subunits per partner or assembly.

Test [1] addresses Se-Met SaTRIC mutant (L148M) (Sulfolobus acidocaldarius). The experiment in a line: crystal structure; SaTRIC purified in DM, crystallised in lipid cubic phase (monoolein); lattices P6(3), P321 and R32, one molecule per asymmetric unit, trimer about the crystallographic three-fold axis.
Test [2] has as its target SaTRIC, prokaryotic TRIC homologue from the archaeon Sulfolobus acidocaldarius, wild type (Sulfolobus acidocaldarius). In words: cross-linking; purified protein in DDM (around 1 mg/ml in 30 ul) with glutaraldehyde (0, 0.00005%, 0.0001%, 0.0005%, 0.001%) at room temperature for 8 h; quenched with 50 mM Tris-Cl pH 8.0; 12% SDS-PAGE.
Test [3] shares this target. In words: SEC-MALS; analytical size-exclusion chromatography in detergent-containing mobile phases; multi-angle light scattering with refractive index detection used to analyse the oligomeric state. (In general: In gel filtration, larger molecules generally elute earlier.)
Test [4] has the same target. The experiment in a line: crystal structure; SaTRIC purified in DM, crystallised in lipid cubic phase (monoolein); lattices P6(3), P321 and R32, one molecule per asymmetric unit, trimer about the crystallographic three-fold axis.
In test [5] the target is CpTRIC, prokaryotic TRIC homologue from the bacterium Colwellia psychrerythraea (Colwellia psychrerythraea 34H). The experiment in a line: cross-linking; purified protein in DDM (around 1 mg/ml in 30 ul) with glutaraldehyde (0, 0.00005%, 0.0001%, 0.0005%, 0.001%) at room temperature for 8 h; quenched with 50 mM Tris-Cl pH 8.0; 12% SDS-PAGE.
The target is the same in test [6]. In words: SEC-MALS; analytical size-exclusion chromatography in detergent-containing mobile phases; multi-angle light scattering with refractive index detection used to analyse the oligomeric state.
The target of test [7] is Se-Met CpTRIC (Colwellia psychrerythraea 34H). In words: crystal structure; Se-Met CpTRIC in octylmaltoside, crystallised from detergent micelles (38% PEG400, 0.1 M NaCl, 0.1 M CdCl2, 0.1 M Tris-HCl pH 8.5); space group R32, one protomer per asymmetric unit.

Regarding “Se-Met SaTRIC mutant (L148M) (natural protein)”, in test [1], the stoichiometry N is 3.

In the case of “SaTRIC, prokaryotic TRIC homologue from the archaeon Sulfolobus acidocaldarius, wild type (natural protein)”, the stoichiometry N in test [2], in test [3] and in test [4] was 3 in each case.

Consider “CpTRIC, prokaryotic TRIC homologue from the bacterium Colwellia psychrerythraea (natural protein)”, for which the stoichiometry N in test [5] and in test [6] was 3 in each case.

The substance Se-Met CpTRIC (natural protein) registered a stoichiometry N in test [7] of 3.
